The values below are quoted from earlier work in patent publication US20060084109.

The target of the series is T1, Formamidopyrimidine glycosylase (Fpg, MutM) (Escherichia coli) (UniProt P05523).
T1 sequence: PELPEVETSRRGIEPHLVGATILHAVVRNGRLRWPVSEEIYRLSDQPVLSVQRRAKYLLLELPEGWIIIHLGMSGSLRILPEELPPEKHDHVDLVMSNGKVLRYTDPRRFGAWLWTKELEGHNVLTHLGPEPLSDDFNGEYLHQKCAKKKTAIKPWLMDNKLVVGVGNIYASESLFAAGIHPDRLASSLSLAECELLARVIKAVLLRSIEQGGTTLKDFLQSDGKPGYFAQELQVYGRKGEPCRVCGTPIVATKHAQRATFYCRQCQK
Put plainly: cleavage_in_vitro. The conditions noted are these: 8-oxo-dG at position 10, cytidine opposite in complementary strand; CITED Vuyisich and Beal 2002; product from 20 nM substrate, 1 nM Fpg, 7 min, room temperature, no inhibitor.

As to “TCATGGGTCNTCGGTATA (double strand) [Fpg 18-mer 8-oxo-dG substrate duplex]”, the activity was 2 nM.
